Measurements as given in publication PMC7977458, “The CK1δ/ε-AES axis regulates tumorigenesis and metastasis in colorectal cancer” (Theranostics, 2021).

How the values were obtained:
[1] = target: SKP2 (UniProt Q13309); assay: anti-Flag co-IP, immunoblot; conditions: reference: wild type; sites S121
[2] = target: T1, Flag-SKP2 (Flag-tagged S phase kinase-associated protein 2) (UniProt Q13309 1-424); assay: pull-down; in vitro GST pulldown; GST-AES fragments and CK1ε-His purified from E. coli, Flag-SKP2 purified from HEK293T cells; with 1 mM ATP; Flag-SKP2 detected with anti-SKP2 antibody; conditions: both partners purified
T1 construct: S phase kinase-associated protein 2 (SKP2); source: HEK293T, transfected, in lysate; also purified from HEK293T cells transfected with the Flag-SKP2 plasmid
T1 sequence (Q13309 whole entry, the tested form may be a part): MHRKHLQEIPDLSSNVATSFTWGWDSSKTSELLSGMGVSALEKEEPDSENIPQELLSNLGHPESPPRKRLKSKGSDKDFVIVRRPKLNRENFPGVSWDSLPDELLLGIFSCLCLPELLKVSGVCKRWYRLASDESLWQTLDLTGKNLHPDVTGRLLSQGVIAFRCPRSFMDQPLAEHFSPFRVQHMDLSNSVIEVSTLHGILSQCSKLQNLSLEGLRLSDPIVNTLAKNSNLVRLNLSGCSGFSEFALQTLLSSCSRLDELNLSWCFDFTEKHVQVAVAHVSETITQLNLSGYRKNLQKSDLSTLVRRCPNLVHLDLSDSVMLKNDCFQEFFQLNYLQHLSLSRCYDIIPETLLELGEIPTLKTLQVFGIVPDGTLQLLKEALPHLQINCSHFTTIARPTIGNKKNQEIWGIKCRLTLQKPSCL

Question: With “AES (amino-terminal enhancer of split) (from UniProt Q08117) S121A” as the molecule, how does the “binding against the reference” value [1] read?
Answer: Its value is “lost”.

B1: GST-AES, full length, phosphorylated by CK1ε-His (natural protein, human, UniProt Q08117 1-197, looked up)
chain: MMFPQSRHSGSSHLPQQLKFTTSDSCDRIKDEFQLLQAQYHSLKLECDKLASEKSEMQRHYVMYYEMSYGLNIEMHKQAEIVKRLNGICAQVLPYLSQEHQQQVLGAIERAKQVTAPELNSIIRQQLQAHQLSQLQALALPLTPLPVGLQPPSLPAVSAGTGLLSLSALGSQAHLSKEDKNGHDGDTHQEDDGEKSD
modifications: phosphorylated in vitro by CK1ε-His with 1 mM ATP; the paper maps the CK1δ/ε site to Ser121
notes: Amino-terminal enhancer of split (AES), human, full length; Same chain as m14, after the kinase reaction in the pull-down; also called full-length AES (with CK1ε-His and ATP); source: E. coli, purified; incubated with CK1ε-His and 1 mM ATP; not shown: GST, N-terminal, kept
Question: Does B1 bind [2]?
Answer: Result: binds
